Eleven molecules from US12060433B2, “CD73 inhibitor and A2A/A2B adenosine receptor inhibitor combination therapy” (Incyte Corporation, priority 2020, dated 2024) can be followed below.

Where a chain is given by its changes, count along the chain named. Bounds are passed on as bounds.

The chains are these.
B1: CL25_hu_8-4: humanized CL25 antibody, VH and VL in FIG. 1B (antibody, V domains shown)
VH: QVQLVQSGAEVKKPGASVKVSCKASGYTFTSYGLSWVRQATGQGLEWMGEIYPGSGNTYYNEKFKGRVTMTRNTSISTAYMELSSLRSEDTAVYYCARYDYLGSSYGFDYWGAGTTVTVSS
VL: DIQMTQSPSSLSASVGDRVTITCKASQDVSTAVAWYQQKPGKAPKLLLYSASYRYSGVPSRFSGSGSGTDYTLTISSLQPEDFATYYCQQHYNTPYTFGGGTKLEIK
B2: CL25_hu_8-6: humanized CL25 antibody, VH and VL in FIG. 1C (antibody, V domains shown)
VH: B1 VH
VL: B1 VL with D1A, Q3R, L11F, V15T, L48I, Y71F, S77C, P80S
B3: CL25_hu_8-5: humanized CL25 antibody, VH and VL in FIG. 1B (antibody, V domains shown)
VH: B1 VH
VL: DIVMTQSPDSLAVSLGERATINCKASQDVSTAVAWYQQKPGQPPKLLIYSASYRYSGVPDRFSGSGSGTDFTLTISSLQAEDVAVYYCQQHYNTPYTFGGGTKLEIK
B4: CL25_hu_9-4: humanized CL25 antibody, VH and VL in FIG. 1C (antibody, V domains shown)
VH: B1 VH with A16S, T41P, M70I, R72A, N73D, T74E, I76T
VL: B1 VL
B5: CL25_hu_10-4: humanized CL25 antibody, VH and VL in FIG. 1A (antibody, V domains shown)
VH: EVQLVQSGAEVKKPGESLKISCKGSGYTFTSYGLSWVRQMPGKGLEWMGEIYPGSGNTYYNEKFKGQVTISADKSISTAYLQWSSLKASDTAMYYCARYDYLGSSYGFDYWGAGTTVTVSS
VL: B1 VL
B6: CL25_hu_9-6: humanized CL25 antibody, VH and VL in FIG. 1C (antibody, V domains shown)
VH: B1 VH with A16S, T41P, M70I, R72A, N73D, T74E, I76T
VL: B1 VL with D1A, Q3R, L11F, V15T, L48I, Y71F, S77C, P80S
B7: CL25_hu_11-6: humanized CL25 antibody, VH and VL in FIG. 1B (antibody, V domains shown)
VH: B1 VH with R72A
VL: B1 VL with D1A, Q3R, L11F, V15T, L48I, Y71F, S77C, P80S
B8: CL25_hu_11-5: humanized CL25 antibody, VH and VL in FIG. 1B (antibody, V domains shown)
VH: B1 VH with R72A
VL: B3 VL
B9: CL25_hu_11-4: humanized CL25 antibody, VH and VL in FIG. 1A (antibody, V domains shown)
VH: B1 VH with R72A
VL: B1 VL
B10: CL25_hu_10-6: humanized CL25 antibody, VH and VL in FIG. 1A (antibody, V domains shown)
VH: B5 VH
VL: B1 VL with D1A, Q3R, L11F, V15T, L48I, Y71F, S77C, P80S
B11: CL25_hu_9-5: humanized CL25 antibody, VH and VL in FIG. 1C (antibody, V domains shown)
VH: B1 VH with A16S, T41P, M70I, R72A, N73D, T74E, I76T
VL: B3 VL

The assay deals with T1, human CD73 (SEQ ID NO: 70) (Homo sapiens, UniProt P21589).
T1 construct: purchased BPS Bioscience
T1 sequence (P21589 27-549): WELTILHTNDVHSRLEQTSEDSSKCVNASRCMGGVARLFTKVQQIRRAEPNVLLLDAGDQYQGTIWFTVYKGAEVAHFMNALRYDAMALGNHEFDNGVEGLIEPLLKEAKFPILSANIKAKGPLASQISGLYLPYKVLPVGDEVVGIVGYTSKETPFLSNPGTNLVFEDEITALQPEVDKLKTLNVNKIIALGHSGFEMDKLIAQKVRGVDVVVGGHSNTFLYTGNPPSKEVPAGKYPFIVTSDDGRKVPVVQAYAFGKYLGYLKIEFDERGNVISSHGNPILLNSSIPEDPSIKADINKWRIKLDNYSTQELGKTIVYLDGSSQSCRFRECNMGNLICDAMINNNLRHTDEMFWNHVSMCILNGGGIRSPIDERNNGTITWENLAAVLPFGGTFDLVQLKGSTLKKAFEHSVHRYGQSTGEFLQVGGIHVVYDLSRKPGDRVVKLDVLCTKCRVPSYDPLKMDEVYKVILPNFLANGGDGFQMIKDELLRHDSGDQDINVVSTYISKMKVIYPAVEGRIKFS
Briefly: SPR (Biacore 8K) binding affinity and kinetics to human CD73. The settings on record: human CD73, open conformation, 25° C. On the procedure: The SPR running buffer (10 mM HEPES, 150 mM NaCl, 3 mM EDTA and 0.05% v/v Surfactant P20, pH 7.4) was prepared from 10×HBS-EP Buffer (GE Healthcare). Anti-human Fc antibodies (GE Healthcare) were immobilized via amine coupling on all sixteen flow cells of an S series sensor chip CM5 (GE Healthcare). The immobilization levels were ˜9000 RU for all flow cells. The desired capturing level of anti-CD73 antibody was achieved by flowing appropriate concentration of anti-CD73 antibody through the active flow cell of each channel. The non-cleavable ADP analogue APCP (adenosine-5′-(α,β-methylene) diphosphate) with the presence of Zn^2+ can be used to shift the CD73 conformational equilibrium from open towards closed. Therefore, recombinant CD73 was incubated with SPR running buffer in the presence of 100 μM APCP and 10 μM ZnCl2 (closed SPR running buffer) to study the binding of anti-CD73 antibody to the CD73 in the closed conformation. To achieve this, the ABA injection feature in Biacore 8K was used. For open conformation, the ABA injection sequence started with 60 seconds injection of running buffer. Then, CD73 3-fold serial dilution concentration series prepared from CD73 stock (BPS Bioscience) and running buffer were injected for 180 seconds immediately followed by running buffer for 240 seconds. For closed conformation, the normal SPR running buffer was replaced by closed SPR running buffer. Surface was regenerated with 30 seconds injection of 3 M MgCl2. […] Binding affinities and kinetic association and dissociation rate constants to human, cynomolgus, and mouse CD73 in either open or closed conformations are shown in Table 8 below. The results in Table 8 ensure cynomolgus pharmacokinetic data will reflect human pharmacokinetic data.
Binding affinities and kinetic association and dissociation rate constants to human, cynomolgus, and mouse CD73 in either open or closed conformations are shown in Table 9 below.
For the molecule B1, the ka was 770000 M⁻¹ s⁻¹ and the kd was 0.00176 s⁻¹.
For the molecule B2, the ka amounted to 715000 M⁻¹ s⁻¹ and the kd worked out at 0.00111 s⁻¹.
On the same counts, the results for B3 are greater than 1e+06 M⁻¹ s⁻¹ and 0.000949 s⁻¹.
Taken in the same sequence, the figures for B4 were 382000 M⁻¹ s⁻¹ and 0.00264 s⁻¹.
Taken in the same sequence, the figures for B5 were 887000 M⁻¹ s⁻¹ and 0.00107 s⁻¹.
B6: the ka is 424000 M⁻¹ s⁻¹ and the kd came to 0.000953 s⁻¹.
Take B7: the ka was 550000 M⁻¹ s⁻¹ and the kd worked out at 0.00101 s⁻¹.
Consider B8, for which the ka was found to be 799000 M⁻¹ s⁻¹ and the kd was found to be 0.00117 s⁻¹.
Taken in the same sequence, the figures for B9 were 624000 M⁻¹ s⁻¹ and 0.00155 s⁻¹.
In turn, B10 showed a ka of 524000 M⁻¹ s⁻¹ and a kd of 0.00092 s⁻¹.
Taken in the same sequence, the figures for B11 were 565000 M⁻¹ s⁻¹ and 0.00114 s⁻¹.
